Measurements as given in patent US20200338203A1 (Bicycle, published 2020).
Numbered stars: 1 amine (or outer) side, 2 acyl side, 3 side chain; on linkers, the order of the positions; unused ones are H or OH. Bridge positions count the residues as written; N and C are the ends. Square brackets hold non-standard residues; d marks the D form. Ends that are not written are not given here. AlexaFluor488 = AlexaFluor488 fluorescent dye label; TBMB = c1c(C[*:1])cc(C[*:3])cc1C[*:2]; Gly(cPent) = N[C@H](C(=O)O)C1CCCC1; βAla = NCCC(=O)O; Sar = CNCC(=O)O

Each binder was assayed against rat EphA2 (Rat, UniProt D3ZBN3 27-205) (assay: FP direct binding, selectivity).
Procedure: (§1) The gain used for analysis was determined for each tracer at the end of the 60 minutes where there was no protein in the well. Data was analysed using Systat Sigmaplot version 12.0. mP values were fit to a user defined quadratic equation to generate a Kd value: f=ymin+(ymax−ymin)/Lig*((x+Lig+Kd)/2-sqrt((((x+Lig+Kd)/2)\hat{ }2)−(Lig*x))). “Lig” was a defined value of the concentration of tracer used.
{AlexaFluor488-βAla}-[Sar][Sar][Sar][Sar][Sar][Sar][Sar][Sar][Sar][Sar]ACPWGPFWCPVNRPGC (linker 12-19-26 via TBMB, bicyclic peptide, fluorescent) [Compound 68] was tested, and the Kd was 15.9 nM.

What follows are binders tested against dog EphA2 (Dog, UniProt A0A286R219 28-206) (assay: FP direct binding, selectivity).
Procedure: as §1
Binder {AlexaFluor488-βAla}-[Sar][Sar][Sar][Sar][Sar][Sar][Sar][Sar][Sar][Sar]ACPWGPFWCPVNRPGC (linker 12-19-26 via TBMB, bicyclic peptide, fluorescent) [Compound 68] has a Kd of 31.9 nM.

What follows are binders tested against T1, Human EphA2 (Ecto) (Human, UniProt P29317 24-537) (assay: FP competition; competitor Compound 18).
T1 construct: extracellular domain
T1 sequence (P29317 24-537): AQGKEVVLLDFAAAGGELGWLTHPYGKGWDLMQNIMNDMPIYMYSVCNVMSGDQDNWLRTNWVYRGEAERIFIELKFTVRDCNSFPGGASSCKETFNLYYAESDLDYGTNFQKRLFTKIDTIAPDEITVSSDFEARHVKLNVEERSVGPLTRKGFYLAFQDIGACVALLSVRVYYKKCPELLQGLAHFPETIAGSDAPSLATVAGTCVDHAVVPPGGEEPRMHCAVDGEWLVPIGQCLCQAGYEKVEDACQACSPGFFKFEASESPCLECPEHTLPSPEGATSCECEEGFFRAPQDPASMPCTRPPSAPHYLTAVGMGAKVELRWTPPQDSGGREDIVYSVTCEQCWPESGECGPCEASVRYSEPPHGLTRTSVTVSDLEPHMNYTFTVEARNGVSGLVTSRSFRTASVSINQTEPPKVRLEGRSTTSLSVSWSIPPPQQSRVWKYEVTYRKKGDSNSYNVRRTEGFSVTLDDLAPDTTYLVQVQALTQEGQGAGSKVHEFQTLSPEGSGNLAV
Ac-[Sar][Sar]A[dD]VTCPWGPFWCPVNRPGC (linker 7-14-21 via TBMB) [Compound 158] showed a Ki of 2.05 nM.
In the case of Ac-[Sar][Sar]A[dD][Gly(cPent)]VTCPWGPFWCPVNRPGC (linker 8-15-22 via TBMB) [Compound 163], the Ki is reported as 1.33 nM.
With Ac-[Sar][Sar]H[dD]VPCPWGPFWCPVNRPGC (linker 7-14-21 via TBMB) [Compound 225] the Ki was 1 nM.

The binders below were run against T2, Mouse EphA2 (Ecto) (Mouse, UniProt Q03145 26-538) (assay: FP competition; competitor Compound 18).
T2 construct: extracellular domain; not shown: Fc fusion or C-terminal polyHis
T2 sequence (Q03145 26-538): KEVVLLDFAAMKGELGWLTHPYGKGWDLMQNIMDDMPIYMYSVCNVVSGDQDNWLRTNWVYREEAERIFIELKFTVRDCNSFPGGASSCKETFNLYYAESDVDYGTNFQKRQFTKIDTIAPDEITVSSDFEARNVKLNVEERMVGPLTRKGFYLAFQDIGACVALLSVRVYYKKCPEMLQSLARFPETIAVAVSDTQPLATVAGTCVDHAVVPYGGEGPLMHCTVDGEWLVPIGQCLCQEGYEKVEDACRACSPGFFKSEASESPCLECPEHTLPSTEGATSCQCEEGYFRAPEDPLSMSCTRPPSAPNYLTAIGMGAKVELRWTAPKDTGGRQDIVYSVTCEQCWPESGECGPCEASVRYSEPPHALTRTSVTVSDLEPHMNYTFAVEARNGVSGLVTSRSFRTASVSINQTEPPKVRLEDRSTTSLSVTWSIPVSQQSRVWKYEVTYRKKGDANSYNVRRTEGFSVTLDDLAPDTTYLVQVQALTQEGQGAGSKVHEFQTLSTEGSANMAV
Work on Ac-[Sar][Sar]A[dD]VTCPWGPFWCPVNRPGC (linker 7-14-21 via TBMB) [Compound 158] yielded a Ki of 2.2 nM.
Binder Ac-[Sar][Sar]A[dD][Gly(cPent)]VTCPWGPFWCPVNRPGC (linker 8-15-22 via TBMB) [Compound 163] has a Ki of 1.74 nM.
Binder Ac-[Sar][Sar]H[dD]VPCPWGPFWCPVNRPGC (linker 7-14-21 via TBMB) [Compound 225] has a Ki of 2.08 nM.

Each binder was assayed against T3, Human EphA2 (Human, UniProt P29317 24-537) (assay: FP competition; competitor: fluorescent Compound 18).
T3 construct: extracellular domain; also called EphA2 (Ecto), Human
T3 sequence (P29317 24-537): as the sequence (P29317 24-537) above
Procedure: (§2) Peptides without a fluorescent tag were tested in competition with a peptide with a fluorescent tag and a known Kd (Table 2). Peptides were diluted to an appropriate concentration in assay buffer as described in the direct binding assay with a maximum of 5% DMSO, then serially diluted 1 in 2. Five μL of diluted peptide was added to the plate followed by 10 μL of human or mouse EphA2 (Table 1) at a fixed concentration which was dependent on the fluorescent peptide used (Table 2), then 10 μL fluorescent peptide added. Measurements were conducted as for the direct binding assay, however the gain was determined prior to the first measurement.
[Sar][Sar]ACPWGPAWCPVNRPGC (linker 4-11-18 via TBMB, bicyclic peptide) [Compound 83] was tested, and the Ki was 199 nM.
For ACPWGPFWCPVARPGC (N-terminal Sar2 before the entry; three Cys cyclised on TBMB, bicyclic peptide) [Compound 101], the Ki was 293 nM.
Binder [Sar][Sar]ACPWGPFWCPVNRAGC (linker 4-11-18 via TBMB, bicyclic peptide) [Compound 104] has a Ki of 124 nM.
[Sar][Sar]ACPWGPFWCPVNRPAC (linker 4-11-18 via TBMB, bicyclic peptide) [Compound 111] showed a Ki of 108 nM.
With [Sar][Sar]ACPWGAFWCPVNRPGC (linker 4-11-18 via TBMB, bicyclic peptide) [Compound 289] the Ki was > 1000 nM.
With [Sar][Sar]ACPWGPFWCPVN[dA]PGC (linker 4-11-18 via TBMB, bicyclic peptide) [Compound 302] the Ki was > 1000 nM.
For [Sar][Sar]ACPWGPFWCPVNR[dA]GC (linker 4-11-18 via TBMB, bicyclic peptide) [Compound 105], the Ki was 677 nM.
[Sar][Sar]ACPWGPFWCPVNRP[dA]C (linker 4-11-18 via TBMB, bicyclic peptide) [Compound 112] showed a Ki of 89 nM.

What follows are binders tested against T3, Human EphA2 (assay: FP competition; competitor: fluorescent Compound 66).
Procedure: as §2
Binder [Sar][Sar]ACPWGPAWCPVNRPGC (linker 4-11-18 via TBMB, bicyclic peptide) [Compound 83] has a Ki of 288 nM.
ACPWGPFWCPVARPGC (N-terminal Sar2 before the entry; three Cys cyclised on TBMB, bicyclic peptide) [Compound 101] showed a Ki of 265 nM.
[Sar][Sar]ACPWGPFWCPVNRAGC (linker 4-11-18 via TBMB, bicyclic peptide) [Compound 104] showed a Ki of 194 nM.
Work on [Sar][Sar]ACPWGPFWCPVNRPAC (linker 4-11-18 via TBMB, bicyclic peptide) [Compound 111] yielded a Ki of 238 nM.
Work on [Sar][Sar]ACPWGAFWCPVNRPGC (linker 4-11-18 via TBMB, bicyclic peptide) [Compound 289] yielded a Ki of 1100 nM.
In the case of [Sar][Sar]ACPWG[dA]FWCPVNRPGC (linker 4-11-18 via TBMB, bicyclic peptide) [Compound 297], the Ki is reported as 1500 nM.
Work on [Sar][Sar]ACPWGPFWCPVN[dA]PGC (linker 4-11-18 via TBMB, bicyclic peptide) [Compound 302] yielded a Ki of 1410 nM.
[Sar][Sar]ACPWGPFWCPVNR[dA]GC (linker 4-11-18 via TBMB, bicyclic peptide) [Compound 105] gave a Ki of 471 nM.
[Sar][Sar]ACPWGPFWCPVNRP[dA]C (linker 4-11-18 via TBMB, bicyclic peptide) [Compound 112] was tested, and the Ki was 110 nM.
